In patent US20260209345A1 (IOMX THERAPEUTICS, published 2026):

Tests used:
recombinant LILRB1 ECD [1] = target: T1, recombinant LILRB1 ECD (human, UniProt Q8NHL6 24-461); test: ELISA, LILRB1 ECD binding to HLA-G-Fc
T1 construct: also called biotinylated LILRB1 ECD
Procedure: (§1) HLA-G inhibition was tested by ELISA. 384-well Maxisorp plates were coated with 2 ug/mL B2M-HLA-G fused to a mouse IgG2a-Fc and the plates were blocked with 2% (w/v) BSA in PBST. […] 15 ul of the antibody dilution series (300 nM to 0.3 nM) were mixed with 30 μL of the pre-mixed LILRB/Avidin-HRP solution (final antibody concentration 100 nM to 0.1 nM) and incubated for 1 h at room temperature. After three wash cycles with PBST, 20 μL of the antibody/LILRB/Avidin-HRP solution was transferred to the plate with immobilized HLA-G and incubated for 15 min at room temperature. After three wash cycles with PBST, residual LILRB binding to HLA-G was detected by developing the ELISA with TMB substrate.

recombinant LILRB1 ECD [2] = target: T1, recombinant LILRB1 ECD; test: BLI, IgG on AHC sensor, ECD in solution
Procedure: (§2) Briefly, IgGs were captured on anti-human capture (AHC) biosensors (Sartorius). […] Subsequently, the sensors were dipped into 1× Kinetics Buffer to measure the dissociation over 420 s. All sensorgrams were double referenced against 1× Kinetics Buffer and unloaded […] sensors to subtract sensor drifts and potential reference binding of the analytes. The affinities were determined by applying a 1:1 binding model.

recombinant LILRA1 ECD = target: T2, recombinant LILRA1 ECD (human, UniProt O75019 17-461); test: BLI, IgG on AHC sensor, ECD in solution
T2 construct: whole canonical entry named; also called LILA1
T2 sequence (O75019 17-461 limits assumed): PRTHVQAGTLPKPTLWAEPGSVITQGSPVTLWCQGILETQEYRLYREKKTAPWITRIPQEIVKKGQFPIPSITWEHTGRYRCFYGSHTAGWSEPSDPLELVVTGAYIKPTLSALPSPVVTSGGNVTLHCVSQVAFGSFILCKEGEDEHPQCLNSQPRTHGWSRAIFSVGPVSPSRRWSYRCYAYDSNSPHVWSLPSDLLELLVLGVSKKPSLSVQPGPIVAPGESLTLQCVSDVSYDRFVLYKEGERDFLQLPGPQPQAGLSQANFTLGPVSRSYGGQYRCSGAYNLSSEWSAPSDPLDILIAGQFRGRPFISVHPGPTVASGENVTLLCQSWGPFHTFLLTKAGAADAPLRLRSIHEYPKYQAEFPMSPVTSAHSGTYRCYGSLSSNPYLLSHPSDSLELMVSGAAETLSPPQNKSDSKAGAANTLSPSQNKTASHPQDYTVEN
Procedure: as §2

recombinant LILRA3 = target: T3, recombinant LILRA3 (human, UniProt Q8N6C8 24-439); test: BLI, IgG on AHC sensor, ECD in solution
T3 construct: whole entry named; also called LILRA3 ECD; LILA3
T3 sequence (Q8N6C8 24-439 limits assumed): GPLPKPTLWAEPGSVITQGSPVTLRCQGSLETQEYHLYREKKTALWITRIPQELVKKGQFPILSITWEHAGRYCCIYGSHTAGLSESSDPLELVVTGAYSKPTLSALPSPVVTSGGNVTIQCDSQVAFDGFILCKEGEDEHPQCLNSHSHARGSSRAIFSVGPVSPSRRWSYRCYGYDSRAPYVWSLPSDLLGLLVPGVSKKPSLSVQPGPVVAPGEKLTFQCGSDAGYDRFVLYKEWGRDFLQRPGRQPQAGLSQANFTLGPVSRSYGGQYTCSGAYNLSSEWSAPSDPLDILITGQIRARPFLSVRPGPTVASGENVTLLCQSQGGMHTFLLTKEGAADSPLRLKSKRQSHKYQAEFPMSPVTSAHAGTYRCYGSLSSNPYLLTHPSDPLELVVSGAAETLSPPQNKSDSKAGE
Procedure: as §2

recombinant LILRB2 ECD [3] = target: T4, recombinant LILRB2 ECD (human, UniProt Q8N423 22-460); test: ELISA, LILRB2 ECD binding to HLA-G-Fc
T4 construct: also called biotinylated LILRB2 ECD
T4 sequence (Q8N423 22-460 limits assumed): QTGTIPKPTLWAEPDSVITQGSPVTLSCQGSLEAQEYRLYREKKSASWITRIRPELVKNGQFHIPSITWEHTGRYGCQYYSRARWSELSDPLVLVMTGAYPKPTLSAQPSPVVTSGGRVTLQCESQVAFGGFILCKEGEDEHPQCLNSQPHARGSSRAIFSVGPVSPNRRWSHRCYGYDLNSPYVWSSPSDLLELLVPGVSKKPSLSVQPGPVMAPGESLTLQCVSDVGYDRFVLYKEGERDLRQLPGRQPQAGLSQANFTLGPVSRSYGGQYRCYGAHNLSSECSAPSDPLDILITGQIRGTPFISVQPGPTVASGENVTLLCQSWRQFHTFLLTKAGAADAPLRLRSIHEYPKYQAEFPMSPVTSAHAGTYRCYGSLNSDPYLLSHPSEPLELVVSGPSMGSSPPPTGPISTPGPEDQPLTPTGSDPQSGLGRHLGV
Procedure: as §1

recombinant LILRB2 ECD [4] = target: T4, recombinant LILRB2 ECD; test: BLI, IgG on AHC sensor, ECD in solution
Procedure: as §2

T1 sequence (Q8NHL6 24-461 limits assumed): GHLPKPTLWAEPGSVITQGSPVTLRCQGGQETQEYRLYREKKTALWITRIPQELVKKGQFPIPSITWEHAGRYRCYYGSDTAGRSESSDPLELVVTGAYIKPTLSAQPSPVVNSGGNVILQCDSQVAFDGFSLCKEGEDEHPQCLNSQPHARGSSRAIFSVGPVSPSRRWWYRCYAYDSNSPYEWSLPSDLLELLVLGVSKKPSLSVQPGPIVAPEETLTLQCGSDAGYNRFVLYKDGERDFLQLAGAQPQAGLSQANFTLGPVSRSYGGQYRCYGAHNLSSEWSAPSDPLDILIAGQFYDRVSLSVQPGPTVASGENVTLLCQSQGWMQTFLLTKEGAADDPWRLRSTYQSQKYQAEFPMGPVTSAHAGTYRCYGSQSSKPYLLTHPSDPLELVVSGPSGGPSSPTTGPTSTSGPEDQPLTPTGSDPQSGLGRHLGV

Molecule | IC50 (recombinant LILRB1 ECD [1]) [nM] | Kd (recombinant LILRB1 ECD [2]) [nM] | Kd (recombinant LILRA1 ECD) [nM] | Kd (recombinant LILRA3) [nM] | IC50 (recombinant LILRB2 ECD [3]) [nM] | Kd (recombinant LILRB2 ECD [4]) [nM] | binding result (recombinant LILRA1 ECD)
Ref051 [BND-22, LILRB1 specific] (antibody) | 1.8 | 6.9 | 15.1 | 39.4 | – | – | –
A-022 (antibody, V domains shown, tested as IgG) VH: QVQLVQSGAEVKKPGSSVKVSCKASGGTFGGSAISWVRQAPGQGLEWMGGIVLAYSTSVYAQKFQGRVTITADESTSTAYMELSSLRSEDTAVYYCAKGPPVGSSSWYTDWYFDLWGRGTLVTVSS VL: SYELTQPPSVSVSPGQTASITCSGDKLGDKYASWYQQKPGQSPVLVIYQDSKRPSGIPERFSGSNSGNTATLTISGTQAEDEADYYCLSYGAHSHGVVFGGGTKLTVL | 3.9 | 5.2 | – | 317 | 3.1 | 4.4 | –
A-037 (antibody, V domains shown, tested as IgG) VH: QVQLVQSGAEVKKPGSSVKVSCKASGGTFSSYAISWVRQAPGQGLEWMGGIIPIFGTANYAQKFQGRVTITADESTSTAYMELSSLRSEDTAVYYCARVHLYYHFPASYFDYWGQGTLVTVSS VL: SYELTQPPSVSVSPGQTASITCSGDKLGDKYASWYQQKPGQSPVLVIYQDSKRPSGIPERFSGSNSGNTATLTISGTQAEDEADYYCLASLGTGGVYVFGGGTKLTVL | 3.8 | 16 | 1270 | – | 3.5 | 2 | –
A-001 (antibody, V domains shown, tested as IgG; also called parental antibody A-001) VH: QVQLVQSGAEVKKPGSSVKVSCKASGGTFSSYAISWVRQAPGQGLEWMGGIIPIFGTANYAQKFQGRVTITADESTSTAYMELSSLRSEDTAVYYCAKDLGTYSSGWPYYYGMDVWGQGTTVTVSS VL: SYELTQPPSVSVSPGQTASITCSGDKLGDKYASWYQQKPGQSPVLVIYQDSKRPSGIPERFSGSNSGNTATLTISGTQAEDEADYYCQSTTHTSFVFGGGTKLTVL | 5.1 | 157 | 1820 | 576 | 3.1 | 36.4 | –
A-006 (antibody, V domains shown, tested as IgG) VH: QVQLVQSGAEVKKPGSSVKVSCKASGGTFSQYAFSWVRQAPGQGLEWMGSIIPGFTTSNYAHKFQGRVTITADESTSTAYMELSSLRSEDTAVYYCAKDLGTYSSGWPYYYGMDVWGQGTTVTVSS VL: SYELTQPPSVSVSPGQTASITCSGDKLGDKYASWYQQKPGQSPVLVIYQDSKRPSGIPERFSGSNSGNTATLTISGTQAEDEADYYCQSTTHTSFVFGGGTKLTVL | 6.1 | 0.5 | 190 | 182 | 4.8 | 2.3 | –
A-009 (antibody, V domains shown, tested as IgG) VH: QVQLVQSGAEVKKPGSSVKVSCKASGGTFSVTAILWVRQAPGQGLEWMGGIIPSFTSANYASKFQGRVTITADESTSTAYMELSSLRSEDTAVYYCAKDLGTYSSGWPYYYGMDVWGQGTTVTVSS VL: SYELTQPPSVSVSPGQTASITCSGDKLGDKYASWYQQKPGQSPVLVIYQDSKRPSGIPERFSGSNSGNTATLTISGTQAEDEADYYCQSTTHTSFVFGGGTKLTVL | 5.5 | 3.7 | 194 | 92.8 | 5.5 | 3.4 | –
A-036 (antibody, V domains shown, tested as IgG) VH: QVQLVQSGAEVKKPGSSVKVSCKASGGTFSSYAISWVRQAPGQGLEWMGGIIPIFGTANYAQKFQGRVTITADESTSTAYMELSSLRSEDTAVYYCAKDLGTYSSGWPYYYGMDVWGQGTTVTVSS VL: SYELTQPPSVSVSPGQTASITCSGDKLGDKYASWYQQKPGQSPVLVIYQDSKRPSGIPERFSGSNSGNTATLTISGTQAEDEADYYCQLTHLTIYVFGGGTKLTVL | 1.2 | 35.8 | 42900 | – | 2.7 | 18.6 | –
A-011 (antibody, V domains shown, tested as IgG) VH: QVQLVQSGAEVKKPGSSVKVSCKASGGSFSHSAFSWVRQAPGQGLEWMGSIIPAFYTANYAQKFQGRVTITADESTSTAYMELSSLRSEDTAVYYCAKDLGTYSSGWPYYYGMDVWGQGTTVTVSS VL: SYELTQPPSVSVSPGQTASITCSGDKLGDKYASWYQQKPGQSPVLVIYQDSKRPSGIPERFSGSNSGNTATLTISGTQAEDEADYYCQSTTHTSFVFGGGTKLTVL | 6.1 | 9.3 | 470 | 137 | 5.5 | 4.4 | –
A-010 (antibody, V domains shown) VH: QVQLVQSGAEVKKPGSSVKVSCKASGGTFQSQAFAWVRQAPGQGLEWMGSIIPGFSTANYAQKFQGRVTITADESTSTAYMELSSLRSEDTAVYYCAKDLGTYSSGWPYYYGMDVWGQGTTVTVSS VL: SYELTQPPSVSVSPGQTASITCSGDKLGDKYASWYQQKPGQSPVLVIYQDSKRPSGIPERFSGSNSGNTATLTISGTQAEDEADYYCQSTTHTSFVFGGGTKLTVL | 4.1 | 4.5 | 760 | 217 | 3.7 | 3.3 | –
A-004 (antibody, V domains shown, tested as IgG) VH: QVQLVQSGAEVKKPGSSVKVSCKASGGTFRTKAIAWVRQAPGQGLEWMGGIIPIFSTANYAPKFQGRVTITADESTSTAYMELSSLRSEDTAVYYCAKDLGTYSSGWPYYYGMDVWGQGTTVTVSS VL: SYELTQPPSVSVSPGQTASITCSGDKLGDKYASWYQQKPGQSPVLVIYQDSKRPSGIPERFSGSNSGNTATLTISGTQAEDEADYYCQSTTHTSFVFGGGTKLTVL | 4.4 | 12.8 | 569 | 232 | 4.5 | 7.1 | –
A-007 (antibody, V domains shown, tested as IgG) VH: QVQLVQSGAEVKKPGSSVKVSCKASGGSFREYAFSWVRQAPGQGLEWMGSIIPTFHTSNYAGKFQGRVTITADESTSTAYMELSSLRSEDTAVYYCAKDLGTYSSGWPYYYGMDVWGQGTTVTVSS VL: SYELTQPPSVSVSPGQTASITCSGDKLGDKYASWYQQKPGQSPVLVIYQDSKRPSGIPERFSGSNSGNTATLTISGTQAEDEADYYCQSTTHTSFVFGGGTKLTVL | 3.3 | 11.7 | 322 | 255 | 3.6 | 1.2 | –
A-012 (antibody, V domains shown, tested as IgG) VH: QVQLVQSGAEVKKPGSSVKVSCKASGGTISEYAFLWVRQAPGQGLEWMGGIIPKFHTANYAQKFQGRVTITADESTSTAYMELSSLRSEDTAVYYCAKDLGTYSSGWPYYYGMDVWGQGTTVTVSS VL: SYELTQPPSVSVSPGQTASITCSGDKLGDKYASWYQQKPGQSPVLVIYQDSKRPSGIPERFSGSNSGNTATLTISGTQAEDEADYYCQSTTHTSFVFGGGTKLTVL | 3.3 | 12.8 | 469 | 166 | 3.8 | 6.8 | –
A-046 (antibody, V domains shown, tested as IgG) VH: QVQLVQSGAEVKKPGSSVKVSCKASGGSFQSYAINWVRQAPGQGLEWMGGIIPGFSTANYAQKFQGRVTITADESTSTAYMELSSLRSEDTAVYYCAKDLGTYSSGWPYYYGMDVWGQGTTVTVSS VL: SYELTQPPSVSVSPGQTASITCSGDKLGDKYASWYQQKPGQSPVLVIYQDSKRPSGIPERFSGSNSGNTATLTISGTQAEDEADYYCQLTHLTIYVFGGGTKLTVL | 2 | 12.6 | – | – | 3.7 | 9.4 | no binding (tested: 900 nM)
A-005 (antibody, V domains shown, tested as IgG) VH: QVQLVQSGAEVKKPGSSVKVSCKASGGTFTIYAINWVRQAPGQGLEWMGGIIPGFHSANYAQKFQGRVTITADESTSTAYMELSSLRSEDTAVYYCAKDLGTYSSGWPYYYGMDVWGQGTTVTVSS VL: SYELTQPPSVSVSPGQTASITCSGDKLGDKYASWYQQKPGQSPVLVIYQDSKRPSGIPERFSGSNSGNTATLTISGTQAEDEADYYCQSTTHTSFVFGGGTKLTVL | 5 | 1 | 407 | 161 | 4.3 | 3.3 | –
A-008 (antibody, V domains shown, tested as IgG) VH: QVQLVQSGAEVKKPGSSVKVSCKASGGTFAESAILWVRQAPGQGLEWMGGIVPSFYSANYAQKFQGRVTITADESTSTAYMELSSLRSEDTAVYYCAKDLGTYSSGWPYYYGMDVWGQGTTVTVSS VL: SYELTQPPSVSVSPGQTASITCSGDKLGDKYASWYQQKPGQSPVLVIYQDSKRPSGIPERFSGSNSGNTATLTISGTQAEDEADYYCQSTTHTSFVFGGGTKLTVL | 4.1 | 7.4 | 1520 | 355 | 4 | 8.8 | –
